Measurements: the supplement of paper PMC9170038

Legend:
MS2 coat protein [1] = experiment: apparent KD of MS2 coat protein, switch ON state; designed switch direction (-1 OFF switch, 1 ON switch): -1; higher = weaker reporter binding; conditions: FMN input: 0 or 200 uM; Eterna round: R93 (includes R88 designs)
Procedure, shortened: (§1)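 Designed RNA switches, transcribed on-chip from Illumina sequencing clusters, were titrated with SNAP-549-labelled MS2 coat protein from 0.7 or 1.5 nM to 3 µM in twofold steps. The solution was 100 mM Tris-HCl pH 7.5, 80 mM KCl, 4 mM MgCl2, with constant ligand or without it. Apparent KD is the median over each design's normalised cluster binding-curve fits.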

MS2 coat protein [2] = experiment: apparent KD of MS2 coat protein, switch OFF state (with FMN for OFF switches, without FMN for ON switches); designed switch direction (-1 OFF switch, 1 ON switch): -1; higher = weaker reporter binding; conditions: FMN input: 0 or 200 uM; Eterna round: R93 (includes R88 designs)
Procedure, shortened: as §1

Sequence | apparent KD of MS2 coat protein (MS2 coat protein [1]) | apparent KD of MS2 coat protein (MS2 coat protein [2])
AAUAAGUCAGGAUAUGCGAAUAGAAGAUAAGAUACCCAAAAGCAGAAGGGACAUGAGGAUCACCCAUGUAAAUA [JR_Exc004_Sub010] | 31.1 nM | 25.6 nM
AACUGACAUGAGGAUCACCCAUGUCAGGAUAUGAUAUGUAAAAAAUAAAAAAUACUUAUCAGAAGGGACAUGAA [Design 43: Sub-opt C] | 15.8 nM | 14.4 nM
AAAAGGUCAGGAUAUACAAAAAAAAAAAAAAAAAAAAAAAAGUAGAAGGGACAUGAGGAUCACCCAUGUGAAAA [Exclusion 4 - Omei 2] | 64 nM | 40.3 nM
GGAAAACAUGAGGAUCACCCAUGUAAGGAUAUGCUAAAAAAGGAAAAAAACCCACCAGGCAGAAGGUACUAAAG [Janelle Amethyst 18 Mod 3 - Jieux - Exclusion 1] | 22.7 nM | 53.2 nM
UAGAACCUAGGAUAUACUUGGGUCACUAAUUUACUGAUAUAACAUGAGGAUCACCCAUGUAGAAGGAGGAGUAA [JR_Exc002_Sub203] | 45.2 nM | 26.7 nM
AAAAAGUGAGGAUAUGUCAAAAGUCACAAAAGUGACAAAAGACAGAAGGCACAUGAGGAUCACCCAUGUGAGGG [Mod of Eli - Late G + early G segment 4] | 110 nM | 103 nM
AAAAAACAUGAGGAUCACCCAUGUCAGGAUAUCCGGUUCUUGAAAAUCAAGAGGCGUUGGAGAAGGGACAUUCC [Chica Displaced 14 - Jieux - Exclusion 1] | 27.9 nM | 74.4 nM
AAAAAUGGAGGAUAUACAUGAGGAUCACCCAUGUGUAACUAUACUAAGCACUCCUCACGUAGAAGGCCAAAAAA [Gilly Gone Silly 13 - Jieux - Exclusion 3] | 55.3 nM | 113 nM
GGAAAACAUGAGGAUCACCCAUGUGAGGAUAUCGAUGUCCAAAAAAAAGUGCGGGACUCGAGAAGGCACUUGGA [salish99-ex1-31] | 48.2 nM | 32.5 nM
AACAGUACAGGAUAUACAUGAGGAUCACCCAUGUGAAAAUUAAGUGGAGAACCACAAGGUAGAAGGGUACUGGA [Mat - Exclusion 3 - Eli mod - D62] | 42.4 nM | 127 nM
AGAAAACAUGAGGAUCACCCAUGUCAGGAUAUGUAAAAGAAAAGAAAAGAAAGAAGAAACAGAAGGGACAAGAA [Seth-Peribsen] | 56.9 nM | 53.7 nM
AAAUAGGCAGGAUAUACAUGAAAAUUAAAAAAAAAAAAAAAACAUGAGGAUCACCCAUGUAGAAGGGUCAAAAA [Exclusion 2 - Omei 2] | 74.2 nM | 80.3 nM
AAAAAGUGAGGAUAUACAUGAGAAAAAAAAAUGUAAAAAAAACAUGAGGAUCACCCAUGUAGAAGGCACAAAAA [Ecxl-II] | 40.8 nM | 83.5 nM
AAGAUGUCAGGAUAUGCUGCUCGUCACGAAAGUGAUGAGUAGCAGAAGGGACAUGAGGAUCACCCAUGUAAAGA [Exclusion 4.1c (Exclusion4-cac2 - mutated U at 5)] | 112 nM | 140 nM
AAGGGACAUGAGGAUCACCCAUGUCAGGAUAUGAUGCGAAUAAAGAAAGAAGAAAGCAUCAGAAGGGACAAAAA [58%, Disencluded 3, 3] | 33.7 nM | 57.6 nM
AAAUGACUAGGAUAUACAUGAGGAUCACCCAUGUGUAUAAAUAAAUACACAAAAGAAAGUAGAAGGAGUCAAAA [Ex 3 May 14] | 15.8 nM | 88.2 nM
AAAAAACAUGAGGAUCACCCAUGUGAGGAUAUGGAAAAGAAAAGAAAAGAAAGAAGAACCAGAAGGCACAAGAA [Khafre] | 30 nM | 37.9 nM
GCGCACUAAGGAUAUACAUGAGGAUCACCCAUGUGGGUUUUGAAACAGAUUAAAUAGUGUAGAAGGUAGAAAAC [Lees] | 91.9 nM | 95.8 nM
